Results on two substances are retold here after PMC3679036.

Experiment [1] addresses RhoA (UniProt Q9QUI0). Description: anti-RhoGDI1 co-IP from acinar lysate. The following applies: reference: unstimulated acini; sites S96.
The target of experiment [2] is RhoA (UniProt Q9QUI0). In words: anti-RhoGDI1 co-IP from cytosolic fraction. The following applies: reference: unstimulated acini; sites S96.

“RhoGDI1 (endogenous) (from UniProt Q99PT1) PMA 500 nM” displayed a percent of reference with RhoA [1] of 37%. The substance “RhoGDI1 (endogenous) (from UniProt Q99PT1) CCK 300 pM, 5 min” registered a percent of reference in the experiment with RhoA [2] of 42%.
